Measurements taken from publication PMC3406928 (Hypertension, 2012).

Target: T1, angiotensin type 2 receptor (human (endogenous in RPTCs), UniProt P50052 1-363)
T1 sequence (looked up): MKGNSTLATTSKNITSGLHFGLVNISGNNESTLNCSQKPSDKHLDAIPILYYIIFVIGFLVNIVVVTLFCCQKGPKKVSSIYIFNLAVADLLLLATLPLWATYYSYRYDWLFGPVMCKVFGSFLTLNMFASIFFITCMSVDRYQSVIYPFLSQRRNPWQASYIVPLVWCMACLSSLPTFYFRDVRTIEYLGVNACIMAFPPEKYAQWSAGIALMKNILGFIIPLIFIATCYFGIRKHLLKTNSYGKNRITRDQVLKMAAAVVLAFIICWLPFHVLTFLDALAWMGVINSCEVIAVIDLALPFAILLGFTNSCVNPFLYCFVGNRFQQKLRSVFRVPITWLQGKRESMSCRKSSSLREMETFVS
Experiment: FRET or BRET

- fold increase of corrected FRET after FEN stimulation vs. control: 1.96 fold
B1: dopamine D1 receptor (receptor, human (endogenous in nRPTCs), UniProt P21728 1-446, looked up)
chain: MRTLNTSAMDGTGLVVERDFSVRILTACFLSLLILSTLLGNTLVCAAVIRFRHLRSKVTNFFVISLAVSDLLVAVLVMPWKAVAEIAGFWPFGSFCNIWVAFDIMCSTASILNLCVISVDRYWAISSPFRYERKMTPKAAFILISVAWTLSVLISFIPVQLSWHKAKPTSPSDGNATSLAETIDNCDSSLSRTYAISSSVISFYIPVAIMIVTYTRIYRIAQKQIRRIAALERAAVHAKNCQTTTGNGKPVECSQPESSFKMSFKRETKVLKTLSVIMGVFVCCWLPFFILNCILPFCGSGETQPFCIDSNTFDVFVWFGWANSSLNPIIYAFNADFRKAFSTLLGCYRLCPATNNAIETVSINNNGAAMFSSHHEPRGSISKECNLVYLIPHAVGSSEDLKKEEAAGIARPLEKLSPALSVILDYDTDVSLEKIQPITQNGQHPT
